From patent US6403087 (Biogen, dated 2002)

T1: hLT-α (human, UniProt P01374 35-205, limits assumed)
T1 sequence (looked up): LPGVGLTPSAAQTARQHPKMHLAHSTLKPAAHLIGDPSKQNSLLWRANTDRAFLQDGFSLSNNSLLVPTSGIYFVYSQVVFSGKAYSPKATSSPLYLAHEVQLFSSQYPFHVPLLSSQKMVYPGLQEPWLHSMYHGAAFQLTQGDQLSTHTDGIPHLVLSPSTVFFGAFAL

T2: soluble human LT-α1/β2 ligand (hLT-α1/β2) (human, UniProt P01374 35-205; Q06643 49-244, limits assumed)
T2 sequence (looked up) 1: T1 sequence (looked up)
T2 sequence (looked up) 2: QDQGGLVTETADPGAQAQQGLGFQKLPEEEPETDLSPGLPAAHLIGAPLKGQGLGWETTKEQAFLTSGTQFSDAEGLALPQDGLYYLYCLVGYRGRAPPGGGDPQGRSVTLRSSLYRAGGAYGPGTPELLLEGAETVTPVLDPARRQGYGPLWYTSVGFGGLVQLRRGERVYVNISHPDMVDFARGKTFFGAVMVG

B1: soluble TNF-R fusion protein (p55-TNF-R-Fc) (Fc fusion, UniProt P19438 30-211, looked up, not shown: a dimerising Fc or GST)
chain: LVPHLGDREKRDSVCPQGKYIHPQNNSICCTKCHKGTYLYNDCPGPGQDTDCRECESGSFTASENHLRHCLSCSKCRKEMGQVEISSCTVDRDTVCGCRKNQYRHYWSENLFQCFNCSLCLNGTVHLSCQEKQNTVCTCHAGFFLRENECVSCSNCKKSLECTKLCLPQIENVKGTEDSGTT
B2: soluble human LT-β receptor-immunoglobulin Fc fusion protein (hLT-β-R-Fc) (Fc fusion, not shown: a dimerising Fc or GST)
chain: QAVPPYASENQTCRDQEKEYYEPQHRICCSRCPPGTYVSAKCSRIRDTVCATCAENSYNEHWNYLTICQLCRPCDPVMGLEEIAPCTSKRKTQCRCQPGMFCAAWALECTHCELLSDCPPGTEAELKDEVGKGNNHCVPCKAGHFQNTSSPSARCQPHTRCENQGLVEAAPGTAQSDTTCKNPLEPLPPEMSGT

Tests used:
Assay in all cases: cell-based or functional assay
hLT-α = molecular target: T1, hLT-α
[1] = molecular target: T2, soluble human LT-α1/β2 ligand …
hTNF = hTNF (human, UniProt P01375 77-233)
hTNF, sequence (P01375 77-233 limits assumed): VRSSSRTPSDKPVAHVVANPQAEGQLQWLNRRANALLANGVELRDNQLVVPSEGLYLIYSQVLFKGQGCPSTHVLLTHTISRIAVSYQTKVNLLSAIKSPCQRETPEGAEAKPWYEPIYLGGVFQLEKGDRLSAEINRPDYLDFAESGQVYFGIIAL

| Binder | Concentration of Cytotoxic Agent (ng/ml) Resulting in 50% Growth Inhibition of HT29 cells, in the presence of 5 µg/ml p55-TNF-R-Fc (hLT-α) | Concentration of Cytotoxic Agent (ng/ml) Resulting in 50% Growth Inhibition of HT29 cells, in the presence of 5 µg/ml p55-TNF-R-Fc [1] | Concentration of Cytotoxic Agent (ng/ml) Resulting in 50% Growth Inhibition of HT29 cells, in the presence of 5 µg/ml LT-β-R-Fc (hLT-α) | Concentration of Cytotoxic Agent (ng/ml) Resulting in 50% Growth Inhibition of HT29 cells, in the presence of 5 µg/ml LT-β-R-Fc [1] | Concentration of Cytotoxic Agent (ng/ml) Resulting in 50% Growth Inhibition of HT29 cells, in the presence of 5 µg/ml LT-β-R-Fc (hTNF) |
| --- | --- | --- | --- | --- | --- |
| B1 | > 1000 ng/mL | 5 ng/mL | – | – | – |
| B2 | – | – | 3 ng/mL | > 200 ng/mL | 0.08 ng/mL |
